Source: paper PMC9865144, “Crystal Structure of the SH3 Domain of ASAP1 in Complex with the Proline Rich Motif (PRM) of MICAL1 Reveals a Unique SH3/PRM Interaction Mode” (International Journal of Molecular Sciences, 2023)
Like-named read-outs stand apart in the source and are kept apart here. Each block holds one molecule with its values, some of them ahead of it.

What was measured:
APC PRM (Homo sapiens) = APC PRM (Homo sapiens) (UniProt P25054); settings: cited from earlier work
MICAL1-PRM, Q8TDZ2 = target: T1, MICAL1-PRM, Q8TDZ2; test: ITC; settings: chain shown with the change
T1 chain: EPPPKPPRSCSALAR

[1] = target: T2, ASAP1-SH3 (residue 1087–1147), Q9QWY8; test: ITC; settings: chain shown with the change
T2 chain: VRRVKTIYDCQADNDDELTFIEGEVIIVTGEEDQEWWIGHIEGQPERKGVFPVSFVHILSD

[2] = target: T3, ASAP1-SH3 (residue 1087–1147) (mouse, UniProt Q9QWY8 1087-1147); test: ITC
T3 chain: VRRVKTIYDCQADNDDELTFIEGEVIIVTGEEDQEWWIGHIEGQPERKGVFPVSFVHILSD

[3] = target: ASAP1-SH3 (residue 1087–1147) (mouse) (UniProt Q9QWY8); test: ITC; PEAQ-ITC; 400 μM in the syringe, 40 μM in the cell; 50 mM Tris pH 7.5, 100 mM NaCl, 1 mM DTT, 1 mM EDTA; one-site binding model
[4] = target: T4, SKAP1-SH3 (residue 294–355) (human, UniProt Q86WV1 294-355); test: ITC
T4 chain: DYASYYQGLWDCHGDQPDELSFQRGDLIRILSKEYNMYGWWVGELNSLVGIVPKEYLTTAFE

[5] = target: T5, GRAF2-SH3 (residue 728–786) (human, UniProt A1A4S6 728-786); test: ITC
T5 chain: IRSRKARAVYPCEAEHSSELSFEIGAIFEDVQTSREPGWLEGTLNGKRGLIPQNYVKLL

[6] = target: T3, ASAP1-SH3 (residue 1087–1147); test: ITC
[7] = target: T6, ASAP1-SH3 (residue 1087–1147) (mouse, UniProt Q9QWY8 1087-1147); test: ITC; PEAQ-ITC; 400 μM in the syringe, 40 μM in the cell; 50 mM Tris pH 7.5, 100 mM NaCl, 1 mM DTT, 1 mM EDTA; one-site binding model; settings: both partners purified
T6 construct: ASAP1, mouse, SH3 domain, residue 1087-1147; The Trx-His6 tag is followed by a 3C protease cleavage site; The limits are stated for the crystallisation; also called SH3 domain of ASAP1; source: E. coli BL21(DE3), purified (Ni-NTA, Superdex-200 gel filtration)
T6 sequence (looked up): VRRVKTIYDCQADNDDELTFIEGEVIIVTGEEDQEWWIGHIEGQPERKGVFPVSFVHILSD

[8] = target: T7, GRAF2-SH3 (residue 728–786) (human, UniProt A1A4S6 728-786); test: as above; settings: both partners purified
T7 construct: GRAF2 (GTPase Regulator associated with focal adhesion kinase 2), human, SH3 domain, residue 728-786; also called SH3^AGS of GRAF2; source: E. coli BL21(DE3), purified (Ni-NTA, Superdex-200 gel filtration)
T7 sequence (looked up): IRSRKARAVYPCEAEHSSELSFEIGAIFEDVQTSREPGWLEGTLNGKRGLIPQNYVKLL

[9] = target: T8, SKAP1-SH3 (residue 294–355) (human, UniProt Q86WV1 294-355); test: as above; settings: both partners purified
T8 construct: SKAP1 (Src kinase associated phosphoprotein 1), human, SH3 domain, residue 294-355; also called SH3^AGS of SKAP1; source: E. coli BL21(DE3), purified (Ni-NTA, Superdex-200 gel filtration)
T8 sequence (looked up): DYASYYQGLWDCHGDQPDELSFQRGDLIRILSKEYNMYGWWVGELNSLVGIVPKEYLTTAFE

FAK1 = target: T9, FAK1 (Homo sapiens (Human), UniProt Q05397); test: ITC, Trx fusions
T9 chain: EAPPKPSRPGYPSPR

MICAL1 = target: T10, MICAL1 (Homo sapiens (Human), UniProt Q8TDZ2); test: ITC, Trx fusions
T10 chain: EPPPKPPRSCSALAR

FYB1 = target: T11, FYB1 (Homo sapiens (Human), UniProt O15117); test: ITC, Trx fusions
T11 chain: TLGPPPPKPNRPPNV

Molecule: ASAP1 SH3 (from UniProt Q9ULH1)
Kd (APC PRM (Homo sapiens)): 24 µM

B2: MICAL1-PRM, Q8TDZ2 K832P (peptide)
chain: EPPPPPPRSCSALAR
Kd [1]: 17 µM

B4: ASAP1-SH3 (residue 1087–1147), Q9QWY8 C1096F (protein)
chain: VRRVKTIYDFQADNDDELTFIEGEVIIVTGEEDQEWWIGHIEGQPERKGVFPVSFVHILSD
Kd (MICAL1-PRM, Q8TDZ2): 15.7 µM

B8: FAK1-PRM (residue 710–724) (peptide, UniProt Q05397 710-724, looked up)
chain: EAPPKPSRPGYPSPR
notes: FAK1, human, proline rich motif, residue 710-724; also called PRM^Px+P from FAK1; source: E. coli BL21(DE3), purified (Ni-NTA, Superdex-200 gel filtration)
binding result [7]: binds | binding result [8]: binds | binding result [9]: binds

B9: SKAP1_SH3 (protein)
chain: DYASYYQGLWDCHGDQPDELSFQRGDLIRILSKEYNMYGWWVGELNSLVGIVPKEYLTTAFE
Kd (FAK1): 7.08 µM | Kd (MICAL1): 5.99 µM | Kd (FYB1): 0.29 µM

B10: ASAP1_SH3 (protein)
chain: VRRVKTIYDCQADNDDELTFIEGEVIIVTGEEDQEWWIGHIEGQPERKGVFPVSFVHILSD
Kd (FAK1): 1.97 µM | Kd (MICAL1): 0.82 µM | Kd (FYB1): 7.59 µM

B11: GRAF2_SH3 (protein)
chain: IRSRKARAVYPCEAEHSSELSFEIGAIFEDVQTSREPGWLEGTLNGKRGLIPQNYVKLL
Kd (FAK1): 6.06 µM | Kd (MICAL1): 1.33 µM | Kd (FYB1): 3.14 µM

Next, values leading:

Kd (MICAL1-PRM, Q8TDZ2): 109 µM
B1: ASAP1-SH3 (residue 1087–1147), Q9QWY8 D1099K (protein)
chain: VRRVKTIYDCQAKNDDELTFIEGEVIIVTGEEDQEWWIGHIEGQPERKGVFPVSFVHILSD

Kd [1]: 0.35 µM
B3: MICAL1-PRM, Q8TDZ2 K832R (peptide)
chain: EPPPRPPRSCSALAR

Kd [2]: 0.8 µM | Kd [3]: 1 µM
B5: MICAL1-PRM (peptide)
chain: EPPPKPPRSCSALAR

Kd [4]: 0.29 µM | Kd [5]: 3.14 µM | Kd [6]: 7.59 µM
B6: FYB1-PRM (residue 362–376) (peptide)
chain: RPPNVDLTKFHKTSS

Kd [2]: 1.1 µM
B7: MICAL1-loop3 (domain or fragment)
chain: AEGSDRGPESPELPTPSENSMPPGLSTPTASQEGAGPVPDPSQPTRRQIRLSSPERQRLSSLNLTPDPEMEPPPKPPRSCSALARHALESSFVGWGLPVQSPQALVAMEKEEKESPFSSEEEEEDVPLDSDVEQALQTFAKTSGTMNNYPTWRRTLLRRA
